{"source": "patent US20190263896A1", "about": "(UNIVERSITY OF ZURICH, published 2019)", "binders": {"B1": {"name": "recombinant human antibody NI-101.13A (antibody, V domains shown)", "VH": "QVQLQESGPGLVKPSETLSLTCTVSGGSISRRSYYWGWIRQSPGKGLEWSGSIHYSGSTYYNPSLKSRVTISVDTSKNQFSLKLSSVTAADTAVYYCARSRWGSSWVFDYWGQGTLVTVSS", "VL": "not shown"}, "B2": {"name": "recombinant human antibody NI-101.13B (antibody, V domains shown)", "VH": "QVQLQESGPGLVKPSETLSLTCTVSGGSISRRSYYWGWIRQSPGKGLEWSGSIHYSGSTYYNPSLKSRVTISVDTSKNQFSLKLSSVTAADTAVYYCARSRWGSSWVFDYWGQGTLVTVSS", "VL": "not shown"}, "B3": {"name": "linear synthetic N-terminal Abeta-derived polypeptide representing positions 1 to 16 (peptide)", "peptide": "DAEFRHDSGYEVHHQK", "notes": "domain: Abeta1-16; the numbers count on the Abeta peptide; also called Abeta1-16; monomeric Abeta1-16"}, "B4": {"name": "recombinant NI-101.12 (antibody, V domains shown)", "VH": "EVQLVESGPGLVKPAETLSLTCTVSGGSIRSGSICWYWIRQPPGKGLEWIGYFCYSGATFYTPSLRGRLTISVDASKNQLSLSLSSVTAADTAVYYCARRAGENSGGIEPYYGMDVWGQGTTVTVSS", "VL": "EIVLTQSPSSLSASIGDRVTITCRASESINKYVNWYQQKPGKAPKLLIYAASSLQSGAPSRVSGSGFGRDFSLTISGLQAEDFGAYFCQQSYSAPYTFGQGTKVEIKR"}, "B5": {"name": "control antibody 22C4 (antibody, V domains shown)", "VH": "QVQLQQSGPELVKPGASVKISCKTSGYTFTEYTMHWVKQSHGKSLEWIGGVNPYNDNTSYIRKLQGKVTLTVDRSSSTAYMELRSLTSEDSAVYFCARYGGLRPYYFPMDFWGQGTSVTVSS", "VL": "DIVLTQSPAILSASPGEKVTLTCRASSSVNYMHWYQQKPGSPPKAWIYATSNLASGVPDRFSASGSGTSYSLTISRVEAEDAATYYCQQWRTNPPTFGAGTKLELK"}}, "key": {"[1]": {"molecular_target": "T1, artificial amyloid fibrils prepared from synthetic Abeta1-42 peptides (UniProt P05067 672-713)", "T1 construct": "domain: Abeta1-42; Fibrillar assembly of many copies; also called Abeta1-42 fibrils; synthetic Abeta fibrils", "test": "ELISA, fibrillar Abeta1-42 coated on the plate, antibody 0.1pM to 100nM [right panel]"}, "[2]": {"molecular_target": "T2, recombinant human NI-101.11 antibody", "T2 construct": "also called human antibody against brain beta-amyloid", "test": "competition ELISA: NI-101.11 (1nM) pre-incubated with the peptide at 10 nM to 10 µM, then binding to the coated plate (the coat is not named) [right panel]"}, "[3]": {"molecular_target": "T3, synthetic Abeta1-42 peptide (UniProt P05067 672-713)", "T3 construct": "domain: Abeta1-42; also called linear synthetic Abeta1-42 monomers", "test": "ELISA, synthetic Abeta1-42 peptide coated on the plate"}, "[4]": {"molecular_target": "T4, monomeric synthetic Abeta (UniProt P05067 672-713)", "T4 construct": "also called monomeric Abeta; linear monomeric Abeta peptide", "test": "ELISA, monomeric synthetic Abeta coated on the plate, antibody titrated"}}}
{"binder": "B1", "values": [{"measurement": "binding result", "setting": "[1]", "value": "binds"}]}
{"binder": "B2", "values": [{"measurement": "binding result", "setting": "[1]", "value": "binds"}]}
{"binder": "B3", "values": [{"measurement": "binding result", "setting": "[2]", "value": "no binding (tested: 10 µM)"}]}
{"binder": "B4", "values": [{"measurement": "binding result", "setting": "[3]", "value": "binds"}]}
{"binder": "B5", "values": [{"measurement": "EC50 (read off the curve)", "setting": "[4]", "value": "~1", "unit": "nM"}]}
